# The nanobody polyreactivity screen of Harvey et al. (2022)
# Test: yeast display, Sf9 membrane polyspecificity reagent, FACS + sequencing; frameworks hold sequencing errors
# Procedure, shortened: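 Nanobodies from a synthetic yeast display library (Saccharomyces cerevisiae BJ5465), induced 36–48 hours with galactose, were stained 1 hour at 4 °C with 10% biotinylated, detergent-solubilized Sf9 membrane reagent, enriched on streptavidin microbeads, then FACS-sorted. Anti-HA (expression) and streptavidin (reagent binding) fluorescence set low and high (top ~1%) gates. Polyreactivity labels come from the gate of origin. Genes were colony-PCR amplified, MiSeq 2 × 250 sequenced and filtered by CDR length.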
row,Sequence,polyreactivity (PSR sort gate)
1,QVQLVESGGGLVQAGGSLRLSCAASGRTFRSYAMGWYRQAPGKERELVAGISYNGGSTYYADSVKGRFTISRDNAKNTVYLQMNSLKPEDTAVYYCAATDHYRLYDYWGLGTQVTVSS,low polyreactivity
2,QVQLVESGGGLVQAGGSLRLSCAASGRTFRSYAMGWYRQAPGKERELVAVISSDGSTYYADSVKGRFTISRDNAKNTVYLQMNSLKPEDTAVYYCAAEYTFEEIGGVEFDYWGQGTQVTVSS,low polyreactivity
3,QVQLVESGGGLVQAGGSLRLSCAASGRTFRSYVMGWYRQAPGKERELVAAITRSGGSTYYADSVKGRFTISRDNAKNTVYLQMNSLKPEDTAVYYCATDRWYYYPDYYPYGEYDYWGQGTQVTVSS,low polyreactivity
4,QVQLVESGGGLVQAGGSLRLSCAASGRTFRTYTMGWYRQAPGKEREFVAAITSSGASTYYADSVKGRFTISRDNAKNTVYLEMNSLKPEDTAVYYCAARYGRRLVWVPALLYDYWGQGTQVTVSS,high polyreactivity
5,QVQLVESGGGLVQAGGSLRLSCAASGRTFRTYTMGWYRQAPGKERELVAAIRSIDGITYYADSVKGRFTISRDNAKTTVDLPKNSLKPEDTAVYYCAARYTASKPMGYWGQGTQVTVSS,high polyreactivity
6,QVQLVESGGGLVQAGGSLRLSCAASGRTFRTYVMGWYRQAPGKEREFVAGITWSSGSTRYADSVKGRFTISRDNAKNTVYLQMNSLKPEDTAVYYCAASRVHSYNPGYPRYYYWGQGTQVTVSS,high polyreactivity
7,QVQLVESGGGLVQAGGSLRLSCAASGRTFRVNAMGWYRQAPGKERELVAAITWNGGSTYYADSVKGRFTISRDNAKNTVYLQMNSLKPEDTAVYYCAAKGARYTSRGYYWGQGTQVTVSS,high polyreactivity
8,QVQLVESGGGLVQAGGSLRLSCAASGRTFRVYAIGWYRQAPGKEREFVATISVRGGSTYYADSVKGRFTISRDNAKNNVYLQMNSLKPEDTAVYFCAADSYPYVYALYDYWGQGTQVTVSS,low polyreactivity
9,QVQLVESGGGLVQAGGSLRLSCAASGRTFRVYAMGWYRQAPGKERELVAAIRTDDSTNYADSVKGRFTISRDNAKNTVYLQMNSLKPEDTAVYYCNAEGQFTWLGRRRHKFEYWGQGTQVTVSS,low polyreactivity
10,QVQLVESGGGLVQAGGSLRLSCAASGRTFRVYVMGWYRQAPGKERELVAAIRSDASTNYADSVKGRFTISRDNAKNTVYLQMISLKPEDTAFYYCAARRGKSAGGYGDYYWGQGTQVTVSS,high polyreactivity
11,QVQLVESGGGLVQAGGSLRLSCAASGRTFRWNAMGWYRQAPGKERELVARISWRGGSTYYADSVKGRFTISRDNAKNTVYLQMNSLKPEDTAVYYCAATSPYYRTGYDYWGQGTQVTVSS,high polyreactivity
12,QVQLVESGGGLVQAGGSLRLSCAASGRTFRWTAMGWYRQAPGKERELVAAISYSGGSTYYADSVKGRFTISRDNAKNTVYLQMNSLKPEDTAVYYCAKAYSWYPIIRGLDSWGQGTQVTVSS,high polyreactivity
13,QVQLVESGGGLVQAGGSLRLSCAASGRTFRWYAMGWYRQAPGKERELVAAISGSGDRTYYADSVKGRFTISRDNAKNTVYLQMNSLKPEDTAVYYCNKAYLLYYTYARGDYWGQGTQVTVSS,high polyreactivity
14,QVQLVESGGGLVQAGGSLRLSCAASGRTFRYNAMGWYREAPGKERELVAAISTRGGSTYYADSVKGRFTISRDNAKNTVYLQMNSLKPEDTAVYYCAVTRRFPGHFEDYYWGQGTQVTVSS,low polyreactivity
15,QVQLVESGGGLVQAGGSLRLSCAASGRTFRYNAMGWYRQAPGKERELVAAITGGGSTYYADSVKGRFTISRDTAKNTVYLQMNSLKPEDTAVYYCAAANWRRIDYRYRFDYWGQGTQVTVSS,high polyreactivity
16,QVQLVESGGGLVQAGGSLRLSCAASGRTFRYYAMGWYIQAPGKERELVAAISWRGGSTYYAYSVKGRFTLSRDYAKNTVYLQINSLKPEDTAVYYCAAGILFGHYDYWGQATQVTVSS,high polyreactivity
17,QVQLVESGGGLVQAGGSLRLSCAASGRTFRYYAMGWYRPAPGKERELVAAITSGGSTYYADSVKGRFTISRDNAKNTVYLQMNSLKPEDTAVYYCNKDFTRTWTRHGDDYWGQGTQVTVSS,high polyreactivity
18,QVQLVESGGGLVQAGGSLRLSCAASGRTFRYYAMGWYRPAPGKERELVAAITSGGTSTYYADSVKGRFTISRDNAKNTVYLQMYSLKPEDTAVYYCAAGRRSYSFHNVVRGYDYWGQGTQVTVSS,high polyreactivity
19,QVQLVESGGGLVQAGGSLRLSCAASGRTFRYYAMGWYRQAPGKERELVAAIRANGGSTYYADSVKGRFTISRDNAKNIVYLQMNSLKPEDTAVYYCAALYRRYPYHYDSWGQGTQVTVSS,high polyreactivity
20,QVQLVESGGGLVQAGGSLRLSCAASGRTFRYYAMGWYRQAPGKERELVAAIRRGGSTTYADSVKVRFTISRDNAKNTVYLQMNSLKPEDTAVYYCAARYPGTRGDGYWGQGTQVTVSS,high polyreactivity
21,QVQLVESGGGLVQAGGSLRLSCAASGRTFRYYAMGWYRQAPGKERELVAAISRSGGSTYYAVSVKGRFTISRDNAKNTVYLQMNSLTPEVTAVYYCAARYYVPWFGPSKYTPYDYWGQGIQVTVSS,high polyreactivity
22,QVQLVESGGGLVQAGGSLRLSCAASGRTFRYYAMGWYRQAPGKERELVAAITRGGRTNYADSVKGRFTISRDNAKNTVYLQMNSLKPEDTAVYYCAAVLYTPNKYASYYWGQGTQVTVSS,high polyreactivity

row,Sequence,polyreactivity (PSR sort gate)
1,QVQLVESGGGLVQAGGSLRLSCAASGRTFRYYDMGWYRQAPGKEREFVAAITWRGGSTYYADSVKGRFTISRDNAKNTVYLQMNSLKPEDTAVYYCATDSLRLYGGKRDLYYWGQGTQVTVSS,low polyreactivity
2,QVQLVESGGGLVQAGGSLRLSCAASGRTFRYYSMGWYRQAPGKERELVAAISSRGNTYYADSVKGRFTISRDNAKNTVYLQMNSLKPEDTAVYYCAARNVVTGYRYDYWGHGTQVTVSS,high polyreactivity
3,QVQLVESGGGLVQAGGSLRLSCAASGRTFRYYTMGSYRPAPGKEREFVAAISSTGGTYYADSVKGRFTISRDNAKNTVYLQMNSLKPEDTAVYYCAKVYFWGALSPDKYDEDYWGQGTQVTVSS,low polyreactivity
4,QVQLVESGGGLVQAGGSLRLSCAASGRTFRYYTMGWYRQAPGKEREFVAAISSTGGTYYADSVKGRFTISRDNAKNTVYLQMNSLKPEDTAVYYCAAETEDWNEYNYWGQGTQVTVSS,low polyreactivity
5,QVQLVESGGGLVQAGGSLRLSCAASGRTFRYYTMGWYRQAPGKEREFVAAISSTGGTYYADSVKGRFTISRDNAKNTVYLQMNSLKPEDTAVYYCNATTSSNEYDSWGQGTQVTVSS,low polyreactivity
6,QVQLVESGGGLVQAGGSLRLSCAASGRTFRYYTMGWYRQAPGKEREFVAALSSTGGTYYADSVKGRFTISRDNAKNTVYLQMNSLKPEDTADYYCNVSSLNSYTSGTTYWGVDYWGQGTQVTVSS,low polyreactivity
7,QVQLVESGGGLVQAGGSLRLSCAASGRTFRYYTMGWYRQAPGKERELVAAITRNGGRTYYADSVKGRFTISRDNAKNTVYLQMNSLKPEDTAVYYCAAGTYDGGYHYDYWGQGTQVTVSS,high polyreactivity
8,QVQLVESGGGLVQAGGSLRLSCAASGRTFRYYTMGWYRQAPGKERELVAVISRSGGNTYYADSVKGRFTISRDNAKNTVYLQMNSLKPEDTAVYYCAAKIALDNDYWGQGTQVTVSS,high polyreactivity
9,QVQLVESGGGLVQAGGSLRLSCAASGRTFSANAMGWYRQAPGKERELVAAISSGGSTTYADSVKGRFTISRDNAKNTVYLQMNSLKPEDTAVYYCAAVWLSLFKGWVDTHEYDYWGQGTQVTVSS,low polyreactivity
10,QVQLVESGGGLVQAGGSLRLSCAASGRTFSANAMGWYRQAPGTEREGVATMTVRGGSTNYADSVKGRFTISRDNAKNTVYLQMNSLKPEDTAVYYCNAYVNSNVRWAYWGFDYCGQGTQVTVSS,high polyreactivity
11,QVQLVESGGGLVQAGGSLRLSCAASGRTFSANTMGRYRQAPGKERELVAAITRGASTKYADSVKGRFTISRDNAKNTVYLPMNSLNPDDTAVYYCAAAVAYEYLQYAYTRYYYWGQGTQVTVSS,high polyreactivity
12,QVQLVESGGGLVQAGGSLRLSCAASGRTFSAYAMGWYRQAPGKERELVAAISTNVGSTYYADSVKGRFTISRDTAKNTVYLQMNSLKPEDTAVYYCAKSWTLSGWNYYYWGQGTQVTVSS,high polyreactivity
13,QVQLVESGGGLVQAGGSLRLSCAASGRTFSAYVMGWYRQAPGKEREFVATIRRTGSTYYADSVKGRFTISRDNAKNTVYLQMNSLKPEDTAVYYCNRGSFPSVQGSYPGYGYWGQGTQVTVSS,high polyreactivity
14,QVQLVESGGGLVQAGGSLRLSCAASGRTFSFYAMGWYRQAPGKERELVAAIRSDGGTTYYADSVKGRFTISRDNAKNTVYLQMNSLKPEDTAVYYCNTQSFYFVSYSSSRYLRYYWGQGTQVTVSS,low polyreactivity
15,QVQLVESGGGLVQAGGSLRLSCAASGRTFSFYAMGWYRQAPGKERELVAAISRGGTTNYADSVKGRFTISRDNAKNTVYLQMNSLKPEDTAVYYCAASYFRRGFYSIYEYDYWGQGTQVTVSS,low polyreactivity
16,QVQLVESGGGLVQAGGSLRLSCAASGRTFSGYAKGGYRQAPGKERELVAAITSSGSSTYYADSVKGRFTISRDNAKNTVYLQMNSLKPEDTAVYYCAATPQAHSERYYYQRKYDYWGQGTQVTVSS,low polyreactivity
17,QVQLVESGGGLVQAGGSLRLSCAASGRTFSGYAMGGDIQAPGKERELVAAITARSGSTYYADSVKGRFTISRDNAKNTVYLLMNSLKPEDTAVYYCNAPRYAARFDYWGQGTQVTVSS,high polyreactivity
18,QVQLVESGGGLVQAGGSLRLSCAASGRTFSGYAMGWYRPAPGKERELVATISSGGRTNYADSVKGRFTISRDNAKNTVYLQMISLKPEDTAVYYCNVRWWGRGPWSDYWGQGTQVTVSS,high polyreactivity
19,QVQLVESGGGLVQAGGSLRLSCAASGRTFSGYAMGWYRQAPGKERELVAAIRGGSTNYADSVKGRFTISRDNAKNTVYLQMNSLKPEDTAVYYCNAKRSWVWAGYDYWGQGTQVTVSS,high polyreactivity
20,QVQLVESGGGLVQAGGSLRLSCAASGRTFSGYAMGWYRQAPGKERELVAAISNSGGNTYYADSVKGRFTISRDNAKNTVYLQMNSLKAEDTAVYYSAVDSSSPYDYWGQGTQVTVSS,high polyreactivity
21,QVQLVESGGGLVQAGGSLRLSCAASGRTFSGYAMGWYRQAPGKERELVAAISSGGGSTYYADSVKGRFTISRDNAKNTVYLQMNSLKPEDTAVYYCAADGYPGDYDYWRQGTQVTVSS,low polyreactivity
